{"source": "patent US20130011909A1", "about": "“METHODS AND COMPOSITION TO ENHANCE PRODUCTION OF FULLY FUNCTIONAL P-GLYCOPROTEIN IN PICHIA PASTORIS” (TEXAS TECH UNIVERSITY SYSTEM, priority 2011, published 2013)", "key": {"[1]": {"assay": "Differential scanning calorimetry, thermal unfolding", "assay_type": "physicochemical", "experimental": "Calorimetry was routinely carried out in 20 mM HEPES, pH 7.6, 50 mM NaCl, 10% glycerol, 0.1% DDM and 5.5 mM DTT in 0.13 mL cells at a heating rate of 2 K/minutes with the VP-Capillary DSC System (MicroCal Inc., GE Healthcare). An external pressure of 2.0 atm was maintained to prevent possible degassing of the solutions on heating. Thermal unfolding was irreversible, as determined by sample cooling and reheating. Heat capacity curves were corrected for instrumental baseline obtained by buffer scans. Separated DSC scans were conducted for buffer containing 1% lipids and no transition was detected in the temperature range of thermal unfolding for the proteins in presence of lipids. DSC data were analyzed with the MicroCal Origin software to obtain the unfolding temperature (Tm) and the total unfolding enthalpy (ΔHcal)."}, "Opti-Pgp": {"target": "T1, Opti-Pgp (Mus musculus, UniProt P21447, N83Q/N87Q/N90Q)", "T1 construct": "made in house; host or cells: Pichia pastoris KM71H", "T1 sequence (P21447 whole entry N83Q/N87Q/N90Q)": "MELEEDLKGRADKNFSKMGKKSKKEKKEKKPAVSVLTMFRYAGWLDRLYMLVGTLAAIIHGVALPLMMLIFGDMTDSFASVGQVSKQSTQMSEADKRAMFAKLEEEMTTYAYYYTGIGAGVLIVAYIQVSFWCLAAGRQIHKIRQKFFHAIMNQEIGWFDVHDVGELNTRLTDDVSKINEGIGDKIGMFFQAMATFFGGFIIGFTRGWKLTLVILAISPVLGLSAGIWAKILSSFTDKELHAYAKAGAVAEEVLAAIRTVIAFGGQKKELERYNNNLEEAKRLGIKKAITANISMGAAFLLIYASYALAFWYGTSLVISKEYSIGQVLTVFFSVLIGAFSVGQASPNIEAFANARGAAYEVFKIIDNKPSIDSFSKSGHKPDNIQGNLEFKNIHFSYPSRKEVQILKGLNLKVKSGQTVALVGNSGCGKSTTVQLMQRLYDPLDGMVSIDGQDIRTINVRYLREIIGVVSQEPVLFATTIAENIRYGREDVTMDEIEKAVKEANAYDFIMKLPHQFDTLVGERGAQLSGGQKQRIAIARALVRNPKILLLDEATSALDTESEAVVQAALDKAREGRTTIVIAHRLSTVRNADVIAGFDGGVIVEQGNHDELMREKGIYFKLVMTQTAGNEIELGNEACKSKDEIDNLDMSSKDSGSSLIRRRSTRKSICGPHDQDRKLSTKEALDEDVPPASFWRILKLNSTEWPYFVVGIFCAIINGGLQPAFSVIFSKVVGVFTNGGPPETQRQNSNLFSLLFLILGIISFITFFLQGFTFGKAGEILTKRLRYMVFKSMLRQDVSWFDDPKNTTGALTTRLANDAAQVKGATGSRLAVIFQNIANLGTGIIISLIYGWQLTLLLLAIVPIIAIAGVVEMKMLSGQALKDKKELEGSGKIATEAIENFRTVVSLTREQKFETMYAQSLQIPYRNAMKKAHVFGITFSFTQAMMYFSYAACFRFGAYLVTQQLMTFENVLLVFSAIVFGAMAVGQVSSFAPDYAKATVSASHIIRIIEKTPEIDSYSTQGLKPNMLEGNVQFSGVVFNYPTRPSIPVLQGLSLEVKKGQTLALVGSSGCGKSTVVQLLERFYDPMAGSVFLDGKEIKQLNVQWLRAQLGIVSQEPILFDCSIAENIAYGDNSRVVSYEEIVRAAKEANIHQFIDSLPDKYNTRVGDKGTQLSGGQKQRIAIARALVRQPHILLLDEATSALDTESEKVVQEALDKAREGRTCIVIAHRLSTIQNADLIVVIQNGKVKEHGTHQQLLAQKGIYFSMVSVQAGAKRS", "assay": "ATPase assay of purified, lipid-activated Pgp (coupled ATP-regenerating assay)", "assay_type": "biochemical", "experimental": "(§1) Purified Pgp in 0.1% DDM was mixed with 10 mM DTT on ice for 5 min, then activated with 1% E. coli polar lipids for 15 minutes at room temperature followed by 30 s bath sonication as described. ATPase activity was measured at 37° C. in a coupled assay utilizing an ATP-regenerating system. For each well of a 96-well plate, 10 μl (5 μg) of activated wild type (WT) Pgp or Opti-Pgp was added to 200 μl of assay medium containing 10 mM ATP, 12 mM MgSO4, 3 mM phosphoenolpyruvate, 0.3 mM NADH, 0.5 mg/ml of lactate dehydrogenase, 0.5 mg/ml of pyruvate kinase, 0.1 mM EGTA and 40 mM Tris-HCl, pH 7.4. Verapamil was added from stock solution in water; cyclosporine A was added from concentrated stock in DMSO such that the final DMSO concentration was 2%; control samples contained 2% DMSO. […] ATPase activity was calculated as described previously and plotted with SigmaPlot 10 (Systat Software, Inc.)."}, "[2]": {"system": "S. cerevisiae strain JPY201", "assay": "Drug-resistant growth of Pgp transformants (FK506, valinomycin, doxorubicin)", "assay_type": "cell-based", "experimental": "(§2) FK506 resistance and mating assays were as previously described with the following modifications. To measure FK506-resistant growth, overnight cultures were grown in uracil-deficient medium, diluted to an (OD600 of 0.05, seeded into sterile 96 well plates in triplicate and grown in YPD medium at 30° C. in the absence or presence of FK506, valinomycin [12, 33], or doxorubicin. OD600 was measured at 2 hour intervals for 30 hours in a microplate reader (Benchmark Plus, BioRad) after vigorous mixing. Drugs were dissolved in dimethylsulfoxide and diluted into the plate medium such that the final concentration of solvent was ≦1%. For mating assays, mass populations were diluted to OD600 of 0.6, and 0.75 ml were spotted with 0.25 ml of α-type tester strain DC17 (OD600 of 1.2) onto a 22 mm 0.45 μm HA filter (Millipore, cat no SAIJ791H5), placed on a YPD plate and incubated for 4 hours, then plated in duplicate on minimal and uracil-deficient medium as described. Mating frequency was calculated as the ratio of transformed cells forming diploid colonies on selective medium to the total number of cells introduced in the assay. Statistical analysis of the functional assays was done with the SigmaPlot 11 software using One Way ANOV A with the pairwise multiple comparison Tukey test."}, "[3]": {"system": "S. cerevisiae strain JPY201", "assay": "Mating assay (a-factor export, diploid formation)", "assay_type": "cell-based", "settings": "sterile ste6Δ strain JPY201, tester DC17", "experimental": "as §2"}, "WT-Pgp": {"target": "T2, WT-Pgp (Mus musculus, UniProt P21447, N83Q/N87Q/N90Q)", "T2 construct": "Arrows indicate the position of the full-length proteins (Pgp); made in house; host or cells: Pichia pastoris KM71H", "T2 sequence (P21447 whole entry N83Q/N87Q/N90Q)": "as above", "assay": "ATPase assay of purified, lipid-activated Pgp (coupled ATP-regenerating assay)", "assay_type": "biochemical", "settings": "150 μM verapamil, 1% E. coli lipids, 37° C., n > 30", "experimental": "as §1"}, "[4]": {"target": "wild-type P-glycoprotein (mouse MDR3 gene product) with C-terminal His6-tag (mouse) (UniProt P21447)", "assay": "cell-based or functional assay"}, "[5]": {"target": "gene-optimized P-glycoprotein (mouse opti-MDR3 gene product) with C-terminal His6-tag (mouse) (UniProt P21447)", "assay": "cell-based or functional assay"}}}
{"substance": "Opti-Pgp: P-glycoprotein (mouse MDR3) expressed from codon-optimized opti-MDR3 gene, primary sequence identical to wild-type, C-terminal His6 tag", "values": [{"measurement": "Tm (intermediate)", "setting": "[1]; 0.13% lipid", "value": 48, "unit": "°C"}, {"measurement": "Unfolding temperature T1", "setting": "[1]; 1% lipid", "value": "49.3 ± 1.0", "unit": "°C"}, {"measurement": "Unfolding temperature T2", "setting": "[1]; 1% lipid", "value": "58.7 ± 0.5", "unit": "°C"}, {"measurement": "ΔHcal", "setting": "[1]; 1% lipid", "value": "567 ± 33", "unit": "kcal/mol"}, {"measurement": "Unfolding temperature T1", "setting": "[1]; no added lipids, 0.1% DDM", "value": "42.7 ± 1.7", "unit": "°C"}, {"measurement": "ΔHcal", "setting": "[1]; no added lipids, 0.1% DDM", "value": "264 ± 67", "unit": "kcal/mol"}, {"measurement": "verapamil-stimulated ATPase activity", "setting": "Opti-Pgp; 0.13% lipid", "value": 40, "unit": "%"}, {"measurement": "verapamil-stimulated ATPase activity", "setting": "Opti-Pgp; 0.52% lipid", "value": 80, "unit": "%"}, {"measurement": "ATP hydrolysis rate enhancement over wild-type Pgp", "setting": "Opti-Pgp; Opti-Pgp versus WT-Pgp", "value": 1.2, "unit": "fold"}, {"measurement": "verapamil-stimulated ATPase activity", "setting": "Opti-Pgp; absence of lipids", "value": 11, "unit": "%"}, {"measurement": "Maximal ATPase activity", "setting": "Opti-Pgp; purified Opti-Pgp, 150 μM verapamil, 1% E. coli lipids, 37° C., n > 30", "value": "2.1 ± 0.28", "unit": "µmol/min/mg"}, {"measurement": "Maximum turnover number", "setting": "Opti-Pgp; purified Opti-Pgp, as printed in summary", "value": "2.1 ± 0.28", "unit": "µmol/min/mg"}, {"measurement": "Growth resistance compared with WT-Pgp transformants", "setting": "[2]; FK506 25 μg/ml", "value": "no difference"}, {"measurement": "Growth resistance compared with WT-Pgp transformants", "setting": "[2]; FK506 50 or 75 μg/ml", "value": "grew significantly faster"}, {"measurement": "Growth resistance compared with WT-Pgp transformants", "setting": "[2]; doxorubicin 45 μM", "value": "grew significantly faster"}, {"measurement": "Growth resistance compared with WT-Pgp transformants", "setting": "[2]; doxorubicin 15 and 30 μM", "value": "no significant difference"}, {"measurement": "Time after inoculation to enter log-phase growth", "setting": "[2]; in the presence of FK506", "value": "approximately 22 hours"}, {"measurement": "Time to reach stationary phase", "setting": "[2]; in the presence of FK506", "value": "approximately 28 hours"}, {"measurement": "Growth compared with WT-Pgp transformants", "setting": "[2]; valinomycin 80 μg/ml, data not shown", "value": "as good as or better than"}, {"measurement": "Mating frequency relative to WT-Pgp controls", "setting": "[3]", "value": "about 1.5 fold"}]}
{"substance": "WT-Pgp: wild-type mouse MDR3 P-glycoprotein expressed from the native gene, comparison protein", "values": [{"measurement": "Unfolding temperature T1", "setting": "[1]; 1% lipid", "value": "50.4 ± 0.9", "unit": "°C"}, {"measurement": "Unfolding temperature T2", "setting": "[1]; 1% lipid", "value": "57.8 ± 0.1", "unit": "°C"}, {"measurement": "ΔHcal", "setting": "[1]; 1% lipid", "value": "518 ± 4.2", "unit": "kcal/mol"}, {"measurement": "Unfolding temperature T1", "setting": "[1]; no added lipids, 0.1% DDM", "value": "43.0 ± 1.6", "unit": "°C"}, {"measurement": "ΔHcal", "setting": "[1]; no added lipids, 0.1% DDM", "value": "264 ± 87", "unit": "kcal/mol"}, {"measurement": "Maximal ATPase activity", "setting": "WT-Pgp", "value": "1.8 ± 0.24", "unit": "µmol/min/mg"}]}
{"substance": "cyclosporine A (peptide)", "values": [{"measurement": "Half-maximal inhibition by cyclosporine A (µM) of verapamil-stimulated ATPase activity", "setting": "[4]", "value": 0.98, "unit": "µM"}, {"measurement": "Half-maximal inhibition by cyclosporine A (µM) of verapamil-stimulated ATPase activity", "setting": "[5]", "value": 1.1, "unit": "µM"}]}
